Data reported in the Immune Epitope Database (IEDB).

Legend:
Assay in all cases: IEDB peptide-MHC binding, purified MHC/competitive/radioactivity; filed as Kd, often an IC50 or EC50 that approximates it; ≥ and ≤ were set here for values at or beyond the usual limits of such assays
[1] = target: HLA-A*33:01
[2] = target: HLA-A*31:01
[3] = target: HLA-A*03:01
[4] = target: HLA-A*11:01
[5] = target: HLA-A*68:01
[6] = source organism: Vaccinia virus WR
[7] = source organism: Triticum aestivum
[8] = source organism: SARS coronavirus Tor2
[9] = source organism: Vaccinia virus Copenhagen
[10] = source organism: Mammarenavirus machupoense
[11] = source organism: Mammarenavirus lassaense

Sequence | Kd [1, 6] | Kd [2, 6] | Kd [3, 6] | Kd [4, 6] | Kd [5, 6] | other results
LLNETAKVIK | 15400 nM | 2430 nM | 1590 nM | 230 nM | 4000 nM | –
NVVHAIILH | – | – | – | – | – | Kd [1, 7]: ≥ 24600 nM; Kd [2, 7]: 14000 nM; Kd [3, 7]: 19500 nM; Kd [4, 7]: ≥ 42800 nM; Kd [5, 7]: 1490 nM
GMNDYLGIFK | 5970 nM | 390 nM | 2.86 nM | 4.28 nM | 572 nM | –
LMYALEPRK | ≥ 25900 nM | 5640 nM | 5.59 nM | 53.9 nM | 808 nM | –
LISLNSMYTR | 115 nM | 1.11 nM | 1090 nM | 22.8 nM | 38.6 nM | –
LFSKNILKY | 8620 nM | 3890 nM | 191 nM | 5990 nM | 444 nM | –
KAGNILFWPY | ≥ 70000 nM | ≥ 22500 nM | 248 nM | 363 nM | 14000 nM | –
IIDAKNDDWK | ≥ 70000 nM | ≥ 70000 nM | 6380 nM | 15900 nM | 2270 nM | –
GINNVQSLIK | ≥ 70000 nM | 16100 nM | 170 nM | 17.2 nM | 10300 nM | –
ATEGALNTPK | – | – | – | – | – | Kd [1, 8]: ≥ 44600 nM; Kd [2, 8]: 2820 nM; Kd [3, 8]: 82 nM; Kd [4, 8]: 4.73 nM; Kd [5, 8]: 220 nM
ILARRPTPKK | – | – | – | – | – | Kd [1, 9]: ≥ 70000 nM; Kd [2, 9]: 18100 nM; Kd [3, 9]: 1.7 nM; Kd [4, 9]: 4 nM; Kd [5, 9]: 2390 nM
EKFGHLCKYH | – | – | – | – | – | Kd [1, 10]: ≥ 70000 nM; Kd [2, 10]: ≥ 70000 nM; Kd [3, 10]: ≥ 70000 nM; Kd [4, 10]: ≥ 69700 nM; Kd [5, 10]: ≥ 70100 nM
TCQGSDDIKK | – | – | – | – | – | Kd [1, 11]: ≥ 24200 nM; Kd [2, 11]: 6330 nM; Kd [3, 11]: ≥ 70000 nM; Kd [4, 11]: 13000 nM; Kd [5, 11]: 4450 nM
RLFRSPQVK | 15300 nM | 4960 nM | 87.2 nM | 715 nM | 3670 nM | –
YITDDSDDY | ≥ 77700 nM | ≥ 77900 nM | ≥ 78000 nM | ≥ 77900 nM | ≥ 77700 nM | –
TIISEEYLSK | 8850 nM | 6710 nM | 39.5 nM | 1.74 nM | 16.6 nM | –
TSTGNYNYK | – | – | – | – | – | Kd [1, 8]: 12200 nM; Kd [2, 8]: 151 nM; Kd [3, 8]: 1460 nM; Kd [4, 8]: 21.1 nM; Kd [5, 8]: 37.2 nM

Sequence | Kd [1, 6] | Kd [2, 6] | Kd [3, 6] | Kd [4, 6] | Kd [5, 6] | other results
QLLKILDNLR | 5630 nM | 69.1 nM | ≥ 70100 nM | 15100 nM | 561 nM | –
FFTYLCGFIK | – | – | – | – | – | Kd [1, 8]: 1200 nM; Kd [2, 8]: 612 nM; Kd [3, 8]: 440 nM; Kd [4, 8]: 963 nM; Kd [5, 8]: 206 nM
MTLVPVLEKK | 869 nM | 122 nM | 8.42 nM | 0.466 nM | 1.31 nM | –
SLLKETIQK | – | – | – | – | – | Kd [1, 9]: 7380 nM; Kd [2, 9]: ≥ 20000 nM; Kd [3, 9]: 39.6 nM; Kd [4, 9]: 16.8 nM; Kd [5, 9]: 3480 nM
DIALALEQY | ≥ 23900 nM | 10500 nM | ≥ 78000 nM | ≥ 77900 nM | 364 nM | –
VLLRKNGNK | – | – | – | – | – | Kd [1, 8]: 9640 nM; Kd [2, 8]: 2360 nM; Kd [3, 8]: 42.2 nM; Kd [4, 8]: 1660 nM; Kd [5, 8]: ≥ 26100 nM
VLEIINDKGK | ≥ 70000 nM | ≥ 70000 nM | 10100 nM | 2520 nM | ≥ 70200 nM | –
YTFAISYCR | – | – | – | – | – | Kd [1, 9]: 1.73 nM; Kd [2, 9]: 0.933 nM; Kd [3, 9]: 2760 nM; Kd [4, 9]: 3.35 nM; Kd [5, 9]: 0.418 nM
GAAVTLNRIK | ≥ 70000 nM | ≥ 40600 nM | 1750 nM | 1040 nM | 8350 nM | –
GFPFNKWGK | – | – | – | – | – | Kd [1, 8]: 17700 nM; Kd [2, 8]: 721 nM; Kd [3, 8]: ≥ 20800 nM; Kd [4, 8]: 655 nM; Kd [5, 8]: 17400 nM
TVKMGAFMY | 8710 nM | 3040 nM | 523 nM | 25.3 nM | 48.9 nM | –
AVVYRGTTTY | – | – | – | – | – | Kd [1, 8]: 19300 nM; Kd [2, 8]: 5040 nM; Kd [3, 8]: 123 nM; Kd [4, 8]: 492 nM; Kd [5, 8]: 861 nM
GVTFQGKFKK | – | – | – | – | – | Kd [1, 8]: ≥ 24100 nM; Kd [2, 8]: 2840 nM; Kd [3, 8]: 761 nM; Kd [4, 8]: 536 nM; Kd [5, 8]: 1860 nM
RLCLFDRYFK | – | – | – | – | – | Kd [1, 8]: 1950 nM; Kd [2, 8]: 46.1 nM; Kd [3, 8]: 23.8 nM; Kd [4, 8]: 56.5 nM; Kd [5, 8]: 861 nM
SVSAKQLRTR | 5590 nM | 700 nM | 168 nM | 90.8 nM | 148 nM | –
TQWSLFFFVY | – | – | – | – | – | Kd [1, 8]: 1370 nM; Kd [2, 8]: 1580 nM; Kd [3, 8]: 2510 nM; Kd [4, 8]: 358 nM; Kd [5, 8]: 6710 nM
DTSYYVKEY | ≥ 77700 nM | ≥ 77900 nM | ≥ 78000 nM | 14300 nM | 69.1 nM | –
